In general, Kd refers to the equilibrium constant for the complex coming apart.

For test [1], the target named is N-terminally TAMRA-labeled monoubiquitin (UniProt P0CG47 1-76, TAMRA on the N-terminus). Put plainly: fluorescence polarisation. On the technique in general: Polarisation of emitted light reports the rotation of a fluorescent probe.
In a further test the target is ubiquitin (untagged) (UniProt P0CG47 1-76). Put plainly: ITC. (In ITC the heat of successive injections is recorded.)

B1: USP4(8-925) wild-type (enzyme)
chain: RERPDAETQKSELGPLMRTTLQRGAQWYLIDSRWFKQWKKYVGFDSWDMYNVGEHNLFPGPIDNSGLFSDPESQTLKEHLIDELDYVLVPTEAWNKLLNWYGCVEGQQPIVRKVVEHGLFVKHCKVEVYLLELKLCENSDPTNVLSCHFSKADTIATIEKEMRKLFNIPAERETRLWNKYMSNTYEQLSKLDNTVQDAGLYQGQVLVIEPQNEDGTWPRQTLQSKSSTAPSRNFTTSPKSSASPYSSVSASLIANGDSTSTCGMHSSGVSRGGSGFSASYNCQEPPSSHIQPGLCGLGNLGNTCFMNSALQCLSNTAPLTDYFLKDEYEAEINRDNPLGMKGEIAEAYAELIKQMWSGRDAHVAPRMFKTQVGRFAPQFSGYQQQDSQELLAFLLDGLHEDLNRVKKKPYLELKDANGRPDAVVAKEAWENHRLRNDSVIVDTFHGLFKSTLVCPECAKVSVTFDPFCYLTLPLPLKKDRVMEVFLVPADPHCRPTQYRVTVPLMGAVSDLCEALSRLSGIAAENMVVADVYNHRFHKIFQMDEGLNHIMPRDDIFVYEVCSTSVDGSECVTLPVYFRERKSRPSSTSSASALYGQPLLLSVPKHKLTLESLYQAVCDRISRYVKQPLPDEFGSSPLEPGACNGSRNSCEGEDEEEMEHQEEGKEQLSETEGSGEDEPGNDPSETTQKKIKGQPCPKRLFTFSLVNSYGTADINSLAADGKLLKLNSRSTLAMDWDSETRRLYYDEQESEAYEKHVSMLQPQKKKKTTVALRDCIELFTTMETLGEHDPWYCPNCKKHQQATKKFDLWSLPKILVVHLKRFSYNRYWRDKLDTVVEFPIRGLNMSEFVCNLSARPYVYDLIAVSNHYGAMGVGHYTAYAKNKLNGKWYYFDDSNVSLASEDQIVTKAAYVLFYQRRDD
Consider B1, for which the binding result in test [1] is listed as “binds”.

B2: USP4(8-925) C311A mutant (enzyme)
chain: RERPDAETQKSELGPLMRTTLQRGAQWYLIDSRWFKQWKKYVGFDSWDMYNVGEHNLFPGPIDNSGLFSDPESQTLKEHLIDELDYVLVPTEAWNKLLNWYGCVEGQQPIVRKVVEHGLFVKHCKVEVYLLELKLCENSDPTNVLSCHFSKADTIATIEKEMRKLFNIPAERETRLWNKYMSNTYEQLSKLDNTVQDAGLYQGQVLVIEPQNEDGTWPRQTLQSKSSTAPSRNFTTSPKSSASPYSSVSASLIANGDSTSTCGMHSSGVSRGGSGFSASYNCQEPPSSHIQPGLCGLGNLGNTAFMNSALQCLSNTAPLTDYFLKDEYEAEINRDNPLGMKGEIAEAYAELIKQMWSGRDAHVAPRMFKTQVGRFAPQFSGYQQQDSQELLAFLLDGLHEDLNRVKKKPYLELKDANGRPDAVVAKEAWENHRLRNDSVIVDTFHGLFKSTLVCPECAKVSVTFDPFCYLTLPLPLKKDRVMEVFLVPADPHCRPTQYRVTVPLMGAVSDLCEALSRLSGIAAENMVVADVYNHRFHKIFQMDEGLNHIMPRDDIFVYEVCSTSVDGSECVTLPVYFRERKSRPSSTSSASALYGQPLLLSVPKHKLTLESLYQAVCDRISRYVKQPLPDEFGSSPLEPGACNGSRNSCEGEDEEEMEHQEEGKEQLSETEGSGEDEPGNDPSETTQKKIKGQPCPKRLFTFSLVNSYGTADINSLAADGKLLKLNSRSTLAMDWDSETRRLYYDEQESEAYEKHVSMLQPQKKKKTTVALRDCIELFTTMETLGEHDPWYCPNCKKHQQATKKFDLWSLPKILVVHLKRFSYNRYWRDKLDTVVEFPIRGLNMSEFVCNLSARPYVYDLIAVSNHYGAMGVGHYTAYAKNKLNGKWYYFDDSNVSLASEDQIVTKAAYVLFYQRRDD
Consider B2, for which binding in test [1] was put at a Kd of 600 ± 170 pM.

B3: SAGA DUB module containing Ubp8^C146A (complex)
chain 1: MSICPHIQQVFQNEKSKDGVLKTCNAARYILNHSVPKEKFLNTMKCGTCHEINSGATFMCLQCGFCGCWNHSHFLSHSKQIGHIFGINSNNGLLFCFKCEDYIGNIDLINDAILAKYWDDVCTKTMVPSMERRDGLSGLINMGSTAFMSSILQCLIHNPYFIRHSMSQIHSNNCKVRSPDKCFSCALDKIVHELYGALNTKQASSSSTSTNRQTGFIYLLTCAWKINQNLAGYSQQDAHEFWQFIINQIHQSYVLDLPNAKEVSRANNKQCECIVHTVFEGSLESSIVCPGCQNNSKTTIDPFLDLSLDIKDKKKLYECLDSFHKKEQLKDFNYHCGECNSTQDAIKQLGIHKLPSVLVLQLKRFEHLLNGSNRKLDDFIEFPTYLNMKNYCSTKEKDKHSENGKVPDIIYELIGIVSHKGTVNEGHYIAFCKISGGQWFKFNDSMVSSISQEEVLKEQAYLLFYTIRQVN
chain 2: MTEETITIDSISNGILNNLLTTLIQDIVARETTQQQLLKTRYPDLRSYYFDPNGSLDINGLQKQQESSQYIHCENCGRDVSANRLAAHLQRCLSRGARR
chain 3: MTMDTAQLKSQIQQYLVESGNYELISNELKARLLQEGWVDKVKDLTKSEMNINESTNFTQILSTVEPKALEMVSDSTRETVLKQIREFLEEIVDTQ
chain 4: MRSGDAEIKGIKPKVIEEYSLSQGSGPSNDSWKSLMSSAKDTPLQYDHMNRESLKKYFNPNAQLIEDPLDKPIQYRVCEKCGKPLALTAIVDHLEN
In turn, B3 registered a Kd with ubiquitin (untagged) of 430 mM.

Values taken from article doi:10.1101/238154 (bioRxiv, 2017).
